US20240327525A1 (VIB VZW, published 2024)

B1: anti-CI-M6PR VHH11 (VHH)
VHH: QVQLQESGGGLVQAGDSLKLSCTASGPTFSEITGGWFRQVPGKEREFVASISSTGITTYYTDSVKGRFTVSRDNAKNTMYLQMNSLKPEDTGVYYCAARSTSRSIAITVGYDYWGQGTQVTVSS
modifications: Alexa Fluor 488 NHS ester label on amines
notes: Tag not specified
B2: anti-CI-M6PR VHH3 (VHH)
VHH: QVQLQESGGGLVQPGGSLRLSCAAFGLNFKNFDMIWFRQAPGEERDIVAAISSSSSTIWYEDSVKGRFTISRDNAKNTVYLQMNSLKPEDTAVYYCAAALTSWRRPDYWGQGTQVTVSS
modifications: Alexa Fluor 488 NHS ester label on amines
notes: Tag not specified
B3: anti-CI-M6PR VHH4 (VHH)
VHH: QVQLQESGGGLVQAGGSLRLSCAASGRTFSNYVMGWFRQAPGKEREFVGSISQGGKMTYYPDSVKGRFTISRDNAKNTMYLQMDGLKPEDTAVYYCAVSRGYPMVRVSEVDYWGQGTQVTVSS
modifications: Alexa Fluor 488 NHS ester label on amines
notes: Tag not specified
B4: anti-CI-M6PR VHH6 (VHH)
VHH: QVQLQESGGGLVQAGGSLRLSCAVSGSISSIGGMGWFRQAPGKQREFVAVILNNSGMTSYADSVKGRFTISRGNSKNTMYLQMNSLKPEDTAVYYCNYSGYWGQGTQVTVSS
modifications: Alexa Fluor 488 NHS ester label on amines
notes: Tag not specified
B5: anti-CI-M6PR VHH10 (VHH)
VHH: QVQLQESGGGSVQAGGSLRLSCAPAGRTFSRIRMGWFRQAPGKEREFVAAISSGGLSYYADSMKGRFTISRDNAKNTVLLQMNSLEPDDTAVYYCAAVLNDYIDDYVARNPTLYDYWGQGTQVTVSS
modifications: Alexa Fluor 488 NHS ester label on amines
notes: Tag not specified
B6: anti-CI-M6PR VHH1 (VHH)
VHH: QVQLQESGGGLVQPGGSLRLSCVASGFTFDRYWMNWLRQIPGKEIEWVSTINTGGTGTYYDDSVKGRFSISRDDAKNTLYLTMNSLKTEDTAVYYCARGATYYRGNSAIRGQGTQVTVSS
B7: anti-CI-M6PR VHH9 (VHH)
VHH: QVQLQESGGGLVQAGGSLRLSCAASGTILSIKTMGWYRQAPGKEREWVATITSSSIPMYADSVKGRFTISRDDAKNTVYLQMNSLKPEDTGVYYCNAPWTDYWGQGTQVTVSS
modifications: Alexa Fluor 488 NHS ester label on amines
notes: Tag not specified
B8: anti-CI-M6PR VHH5 (VHH)
VHH: QVQLQESGGGLVQAGGSLKLSCAAAGRTFSRLAMGWFRQAPGKEREFVAAISENGDSIHYSDSVKGRFAVSRDNAKNTVYLQMNSLKPEDTAIYYCAADRAAYYCSGSGCYPSRAPAAASYDYWGQGTQVTVSS
B9: humanized variant VHH8h2 (VHH)
VHH: DVQLVESGGGLVQPGGSLRLSCAASGRTFNTYNWGWFRQAPGKEREFVAAIRWSSSKTSYADSVKGRFTISRDNSKNTVYLQMNSLRPEDTAVYYCAASIVDFTTNPSHFGSWGQGTLVTVSS
notes: Made in E. coli, IMAC purified; tag not specified
B10: humanized variant VHH8h3 (VHH)
VHH: DVQLVESGGGLVQAGGSLRLSCAASGRTFNTYNWGWFRQAPGKEREFVAAIRWSSSKTSYADSVKGRFTISRDNSKNTVYLQMNSLRPEDTAVYYCAASIVDFTTNPSHFGSWGQGTLVTVSS
notes: as for B9
B11: humanized variant VHH8h1 (VHH)
VHH: EVQLVESGGGLVQPGGSLRLSCAASGRTFNTYNWGWFRQAPGKEREFVAAIRWSSSKTSYADSVKGRFTISRDNSKNTVYLQMNSLRPEDTAVYYCAASIVDFTTNPSHFGSWGQGTLVTVSS
notes: as for B9
B12: anti-CI-M6PR VHH2 (VHH)
VHH: QVQLQESGGGLVQPGGSLRLSCVFSGRTFMSYDVGWFRQAPGKERELLSSITSSSSSPYYAESVKGRFAVSRDGAKKTVYLRMNSLEPEDTAVYYCAARENWRNDWQYWGQTQVTVSS
modifications: Alexa Fluor 488 NHS ester label on amines
notes: Tag not specified
B13: humanized variant VHH7h3 (VHH)
VHH: DVQLVESGGGLVQPGGSLRLSCAASGIIFSDNRMDWYRQAPGKQREWVATLASYGWKTYADSVKGRFTISRDNTKNTVYLQMNSLRPEDTAVYYCKASSPVLNDIWGQGTLVTVSS
notes: as for B9
B14: humanized variant VHH7h1 (VHH)
VHH: EVQLVESGGGLVQPGGSLRLSCAASGIIFSDNRMDWYRQAPGKQREWVATLASYGWKTYADSVKGRFTISRDNSKNTVYLQMNSLRPEDTAVYYCKASSPVLNDIWGQGTLVTVSS
notes: as for B9
B15: humanized variant VHH7h2 (VHH)
VHH: DVQLVESGGGLVQPGGSLRLSCAASGIIFSDNRMDWYRQAPGKQREWVATLASYGWKTYADSVKGRFTISRDNSKNTVYLQMNSLRPEDTAVYYCKASSPVLNDIWGQGTLVTVSS
notes: as for B9

Assays:
[1] = molecular target: T1, human cation-independent mannose-6-phosphate receptor on cells (human, UniProt P11717 41-2491); experiment: live-cell imaging of the uptake of AF488-labelled VHH by MCF7 cells
T1 construct: Endogenous receptor on MCF7 cells (live-cell imaging) and HeLa cells (LYTAC assays); also called cell-surface hCI-M6PR; native hCI-M6PR
Procedure: For live-cell imaging, 2×10⁴ MCF7 cells/well were seeded in OptiMEM medium and incubated the next day with Lyso Tracker Deep Red DND-99 (50 nM, Thermo Fischer, L12492) for 30 minutes at 37° C., 5% CO₂ and washed with OptiMEM after which 7.5 μM AF488 labelled anti-CI-M6PR VHHs (in OptiMEM) were incubated on the cells. For every well (i.e. anti-CI-M6PR VHH), Z-stacks were taken at three different positions every six minutes, for three hours in total. Z-slices (12) were acquired per position at a step size of 1.5 μm and XY pixel size was 275 nm by 275 nm. Excitation and emission wavelengths of the fluorescent compounds used were LTR (λEx: 633 nm and λEm: 665-715 nm), AF488 (λEx: 488 nm and λEm: 520±35 nm), Hoechst/DAPI (λEx: 405 nm and λEm: 420-470 nm).

[2] = molecular target: T1, human cation-independent …; experiment: cell-based or functional assay
[3] = molecular target: T2, human CI-M6PR domain1-3His6 (human, UniProt P11717 41-467); experiment: BLI, biotinylated antigen on SA tips, global 1:1 fit, dissociation at pH 7.4
T2 construct: Recombinant, made in HEK293 cells; Biotinylated with NHS-PEG4-biotin for BLI; unlabelled in SEC-MALLS and crystallisation; also called CI-M6PR hDom1-3His6; hDom1-3His6
Procedure: (§1) Biotinylated human domain₁₋₃His₆ was immobilized on Streptavidin SA biosensors (Sartorius) to a signal of 0.6 nm. […] Between runs, biosensors were regenerated by three times 10 s exposure to regeneration buffer (10 mM glycine pH 3). The degree of association and dissociation was measured in δ nm over time(s).
as §1, with “FIGS. 10A-10E. […] BLI was performed on an Octet Red96 (FortéBio) instrument in kinetics buffer (0.2 M Na₂HPO₄, 0.1 M Na⁺citrate, 0.01% bovine serum albumin, 0.002% Tween-20). Biotinylated” for “Biotinylated”, “assays,” for “runs,”
(§2) After loading, the tips were incubated with VHHs serially diluted in pH 7.4 kinetic buffer during the association phase and dissociation was performed at pH 7.4, pH 6.5, pH 6.0, pH 5.5 and pH 5.0. All biosensor tips were then regenerated before analysis of the subsequent VHH. Table 3 summarizes the kinetic parameters retrieved after processing and curve fitting of the BLI measurements.

[4] = molecular target: T2, human CI-M6PR domain1-3His6; experiment: BLI, association pH 7.4, dissociation at pH 6.5, mean of local fits
Procedure: as §1, with “FIGS. 9A-9E. […] BLI was performed on an Octet Red96 (FortéBio) instrument in kinetics buffer (0.2 M Na₂HPO₄, 0.1 M Na⁺citrate, 0.01% bovine serum albumin, 0.002% Tween-20). Biotinylated” for “Biotinylated”
as §1, with “FIGS. 10A-10E. […] BLI was performed on an Octet Red96 (FortéBio) instrument in kinetics buffer (0.2 M Na₂HPO₄, 0.1 M Na⁺citrate, 0.01% bovine serum albumin, 0.002% Tween-20). Biotinylated” for “Biotinylated”, “assays,” for “runs,”

[5] = molecular target: T2, human CI-M6PR domain1-3His6; experiment: BLI, association pH 7.4, dissociation at pH 5.0, mean of local fits
Procedure: as §1, with “FIGS. 9A-9E. […] BLI was performed on an Octet Red96 (FortéBio) instrument in kinetics buffer (0.2 M Na₂HPO₄, 0.1 M Na⁺citrate, 0.01% bovine serum albumin, 0.002% Tween-20). Biotinylated” for “Biotinylated”
as §1, with “FIGS. 10A-10E. […] BLI was performed on an Octet Red96 (FortéBio) instrument in kinetics buffer (0.2 M Na₂HPO₄, 0.1 M Na⁺citrate, 0.01% bovine serum albumin, 0.002% Tween-20). Biotinylated” for “Biotinylated”, “assays,” for “runs,”

[6] = molecular target: T2, human CI-M6PR domain1-3His6; experiment: BLI, biotinylated antigen on SA tips, global 1:1 fit, association at pH 7.4
Procedure: as §1
as §1, with “FIGS. 10A-10E. […] BLI was performed on an Octet Red96 (FortéBio) instrument in kinetics buffer (0.2 M Na₂HPO₄, 0.1 M Na⁺citrate, 0.01% bovine serum albumin, 0.002% Tween-20). Biotinylated” for “Biotinylated”, “assays,” for “runs,”
as §2

[7] = molecular target: T2, human CI-M6PR domain1-3His6; experiment: BLI, association pH 7.4, dissociation at pH 5.5, mean of local fits
Procedure: as §1, with “FIGS. 9A-9E. […] BLI was performed on an Octet Red96 (FortéBio) instrument in kinetics buffer (0.2 M Na₂HPO₄, 0.1 M Na⁺citrate, 0.01% bovine serum albumin, 0.002% Tween-20). Biotinylated” for “Biotinylated”
as §1, with “FIGS. 10A-10E. […] BLI was performed on an Octet Red96 (FortéBio) instrument in kinetics buffer (0.2 M Na₂HPO₄, 0.1 M Na⁺citrate, 0.01% bovine serum albumin, 0.002% Tween-20). Biotinylated” for “Biotinylated”, “assays,” for “runs,”

[8] = molecular target: T2, human CI-M6PR domain1-3His6; experiment: BLI, association pH 7.4, dissociation at pH 6.0, mean of local fits
Procedure: as §1, with “FIGS. 9A-9E. […] BLI was performed on an Octet Red96 (FortéBio) instrument in kinetics buffer (0.2 M Na₂HPO₄, 0.1 M Na⁺citrate, 0.01% bovine serum albumin, 0.002% Tween-20). Biotinylated” for “Biotinylated”
as §1, with “FIGS. 10A-10E. […] BLI was performed on an Octet Red96 (FortéBio) instrument in kinetics buffer (0.2 M Na₂HPO₄, 0.1 M Na⁺citrate, 0.01% bovine serum albumin, 0.002% Tween-20). Biotinylated” for “Biotinylated”, “assays,” for “runs,”

Row | Binder | binding result [1] | internalisation rate (live-cell imaging of AF488-VHH on MCF7 cells) [2] | Kd [3] | koff [3] | koff [4] | koff [5] | kon [6] | koff [7] | koff [8]
1 | B1 | no binding (tested: 7.5 µM) |  |  |  |  |  |  |  | 
2 | B2 | no binding (tested: 7.5 µM) |  |  |  |  |  |  |  | 
3 | B3 | no binding (tested: 7.5 µM) |  |  |  |  |  |  |  | 
4 | B4 | no binding (tested: 7.5 µM) |  |  |  |  |  |  |  | 
5 | B5 | no binding (tested: 7.5 µM) |  |  |  |  |  |  |  | 
6 | B6 |  | 1.38e+06 summed AF-voxels/minute |  |  |  |  |  |  | 
7 | B7 | no binding (tested: 7.5 µM) |  |  |  |  |  |  |  | 
8 | B8 |  | 687000 summed AF-voxels/minute |  |  |  |  |  |  | 
9 | B9 |  |  | 3.07 nM | 0.00067 s⁻¹ | 0.0011 s⁻¹ | 0.041 s⁻¹ | 220000 M⁻¹ s⁻¹ | 0.0044 s⁻¹ | 0.0015 s⁻¹
10 | B10 |  |  | 1.76 nM | 0.00051 s⁻¹ | 0.0022 s⁻¹ | 0.033 s⁻¹ | 290000 M⁻¹ s⁻¹ | 0.0041 s⁻¹ | 0.002 s⁻¹
11 | B11 |  |  | 1.06 nM | 0.00048 s⁻¹ | 0.00053 s⁻¹ | 0.029 s⁻¹ | 450000 M⁻¹ s⁻¹ | 0.0043 s⁻¹ | 0.0015 s⁻¹
12 | B12 | no binding (tested: 7.5 µM) |  |  |  |  |  |  |  | 
13 | B13 |  |  | 14 nM | 0.0064 s⁻¹ | 0.011 s⁻¹ | 0.019 s⁻¹ | 460000 M⁻¹ s⁻¹ | 0.015 s⁻¹ | 0.013 s⁻¹
14 | B14 |  |  | 14.1 nM | 0.0071 s⁻¹ | 0.0097 s⁻¹ | 0.02 s⁻¹ | 500000 M⁻¹ s⁻¹ | 0.014 s⁻¹ | 0.012 s⁻¹
15 | B15 |  |  | 13.6 nM | 0.0064 s⁻¹ | 0.0094 s⁻¹ | 0.019 s⁻¹ | 470000 M⁻¹ s⁻¹ | 0.014 s⁻¹ | 0.011 s⁻¹
